Laboratory results published in patent US20180362668.

Columns and labels:
[1] = target: T1, VhH-Fc fusion protein chain B with D356C + T366S + L368A + Y407V + F405K; assay: non-reducing SDS-PAGE densitometry of Protein A-purified co-transfection product; chain A:chain B vectors 4:1
[2] = target: Fc protein chain B with D356C + T366S + L368A + Y407V + F405K; assay: non-reducing SDS-PAGE of Protein A-purified co-transfection product; chain A:chain B vectors 4:1
[3] = target: T1, VhH-Fc fusion protein chain B with …; assay: non-reducing SDS-PAGE densitometry of Protein A-purified co-transfection product; chain A:chain B vectors 1:4
[4] = target: Fc protein chain B with D356C + T366S + L368A + Y407V + F405K; assay: non-reducing SDS-PAGE of Protein A-purified co-transfection product; chain A:chain B vectors 1:4
[5] = target: T2, VhH-Fc fusion protein chain B with T366S + L368A + Y407V + D399S + F405K; assay: non-reducing SDS-PAGE densitometry of Protein A-purified co-transfection product; chain A:chain B vectors 4:1
[6] = target: T2, VhH-Fc fusion protein chain B with …; assay: non-reducing SDS-PAGE densitometry of Protein A-purified co-transfection product; chain A:chain B vectors 1:1
[7] = target: T2, VhH-Fc fusion protein chain B with …; assay: non-reducing SDS-PAGE densitometry of Protein A-purified co-transfection product; chain A:chain B vectors 1:4
[8] = target: T3, VhH-Fc fusion protein chain B with T366S + L368G + Y407A + F405K; assay: non-reducing SDS-PAGE densitometry of Protein A-purified co-transfection product; chain A:chain B vectors 4:1
[9] = target: T3, VhH-Fc fusion protein chain B with …; assay: non-reducing SDS-PAGE densitometry of Protein A-purified co-transfection product; chain A:chain B vectors 1:4

B1: ScFv-Fc fusion protein chain A with Y349C + T366W + K409A (protein)
chain: EVQLLESGGGVVQPGRSLRLSCIASGFTFSSYPMTWVRQAPGKGLEWVASISYDGSYKYKADSMKGRLTISRDNSKNTLYLEMNSLTAEDTAVYYCARTAFFNAYDFWGQGTLVTVSSASTKGPSVGGGGSGGGGSEIVMTQSPATLSVSPGERATLSCRASQSVRSNLAWYQQKPGQAPRLLIYAASTRATGIPARFSGSGSGTEFTLTISSLQSEDFAVYYCQQYNEWFRTSGQGTKVEIKRDKTHTCPPCPAPELLGGPSVFLFPPKPKDTLMISRTPEVTCVVVDVSHENPEVKFNWYVDGVEVHNAKTKPREEQYNSTYRVVSVLTVLHQDWLNGKEYKCKVSNKALPAPIEKTISKAKGQPREPQVCTLPPSRDELTKNQVSLWCLVKGFYPSDIAVEWESNGQPENNYKTTPPVLDSDGSFFLYSALTVDKSRWQQGNVFSCSVMHEALHNHYTQKSLSLSPGK
ScFv-Fc/VhH-Fc heterodimer (%) [1]: 54% | ScFv-Fc/Fc heterodimer (%) [2]: 53% | ScFv-Fc/VhH-Fc heterodimer (%) [3]: 47% | ScFv-Fc/Fc heterodimer (%) [4]: 66%

B2: ScFv-Fc fusion protein chain A with T366W + K409A + K392D (protein)
chain: EVQLLESGGGVVQPGRSLRLSCIASGFTFSSYPMTWVRQAPGKGLEWVASISYDGSYKYKADSMKGRLTISRDNSKNTLYLEMNSLTAEDTAVYYCARTAFFNAYDFWGQGTLVTVSSASTKGPSVGGGGSGGGGSEIVMTQSPATLSVSPGERATLSCRASQSVRSNLAWYQQKPGQAPRLLIYAASTRATGIPARFSGSGSGTEFTLTISSLQSEDFAVYYCQQYNEWFRTSGQGTKVEIKRDKTHTCPPCPAPELLGGPSVFLFPPKPKDTLMISRTPEVTCVVVDVSHENPEVKFNWYVDGVEVHNAKTKPREEQYNSTYRVVSVLTVLHQDWLNGKEYKCKVSNKALPAPIEKTISKAKGQPREPQVYTLPPSRDELTKNQVSLWCLVKGFYPSDIAVEWESNGQPENNYDTTPPVLDSDGSFFLYSALTVDKSRWQQGNVFSCSVMHEALHNHYTQKSLSLSPGK
ScFv-Fc/VhH-Fc heterodimer (%) [5]: 61% | ScFv-Fc/VhH-Fc heterodimer (%) [6]: 80% | ScFv-Fc/VhH-Fc heterodimer (%) [7]: 73%

B3: ScFv-Fc fusion protein chain A with T366W + K409A (protein)
chain: EVQLLESGGGVVQPGRSLRLSCIASGFTFSSYPMTWVRQAPGKGLEWVASISYDGSYKYKADSMKGRLTISRDNSKNTLYLEMNSLTAEDTAVYYCARTAFFNAYDFWGQGTLVTVSSASTKGPSVGGGGSGGGGSEIVMTQSPATLSVSPGERATLSCRASQSVRSNLAWYQQKPGQAPRLLIYAASTRATGIPARFSGSGSGTEFTLTISSLQSEDFAVYYCQQYNEWFRTSGQGTKVEIKRDKTHTCPPCPAPELLGGPSVFLFPPKPKDTLMISRTPEVTCVVVDVSHENPEVKFNWYVDGVEVHNAKTKPREEQYNSTYRVVSVLTVLHQDWLNGKEYKCKVSNKALPAPIEKTISKAKGQPREPQVYTLPPSRDELTKNQVSLWCLVKGFYPSDIAVEWESNGQPENNYKTTPPVLDSDGSFFLYSALTVDKSRWQQGNVFSCSVMHEALHNHYTQKSLSLSPGK
ScFv-Fc/VhH-Fc heterodimer (%) [8]: 52% | ScFv-Fc/VhH-Fc heterodimer (%) [9]: 89%
